Test results: patent US20090196872A1 (KIRIN BEER, published 2009)

B1: human anti-M2 monoclonal antibody no. Z3G1 (recombinant IgG1 type Z3, CHO; ATCC PTA-5967) (antibody, V domains shown)
VH: QVQLVQSGAEVKKPGASVKVSCKASGYTFTSYGISWVRQAPGQGLEWMGWISAYNGNTNYAQKLQGRVTMTTDTSTSTAYMELRSLRSDDTAVYYCARAAAGGYFQHWGQGTLVTVSS
VL: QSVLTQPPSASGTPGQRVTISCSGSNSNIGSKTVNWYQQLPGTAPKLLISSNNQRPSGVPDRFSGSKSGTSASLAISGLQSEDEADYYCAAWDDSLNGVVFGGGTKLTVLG
B2: human anti-M2 monoclonal antibody C40G1 (antibody, V domains shown)
VH: QLQLQESGPGLVKPSETLSLTCTVSGGSISSSFYYCGWIRQPPGKGLEWIGSIYYRGSTYYNPSLKSRVTISVDTSKNQFSLKLSSVTAADTAVYYCARRVTMVRGVKGDYFDYWGQGTLVTVSS
VL: DIQMTQSPSSLSASVGDRVTITCRASQGISSWLAWYQQKPEKVPKSLIYAASSLQSGVPSRFSGSGSGTDFTLTISSLQPEDFATYYCQQYNYYPLTFGGGTKVEIKR
B3: human anti-M2 monoclonal antibody N547 (antibody, V domains shown)
VH: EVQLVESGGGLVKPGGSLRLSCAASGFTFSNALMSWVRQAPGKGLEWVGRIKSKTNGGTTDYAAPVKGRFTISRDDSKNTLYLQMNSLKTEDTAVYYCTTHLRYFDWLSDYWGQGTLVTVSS
VL: QSVLTQPPSMSAAPGQKVTISCSGSSSNIGNNYISWYQQLPGTAPKVLIYDNNKRPSGIPDRFSGSKSGTSATLGITGLQTGDEADYYCGSWDSSLSAGVFGTGTKVTVLG
B4: human anti-M2 monoclonal antibody L66 (antibody, V domains shown)
VH: EVQLVESGGGVVRPGGSLRLSCAASGFTFDDYGMSWVRQAPGKGLEWVSGINWNGGSTGYADSVKGRFTISRDNAKNSLYLQMNSLRAEDTALYYCARDRVTMVRGVIMDYYGMDVWGQGTTVTVSS
VL: QTVVTQEPSLTVSPRGTVTLTCSSSTGAVTSGYYPGWFQLKPGQAPMSLIYSARKKHSWTPARFSGSLLGGKAALTLSGVQPEDEAEYYCLLYYGGAYVFGTGTKVTVLG

biological target: T1, M2 protein expressed on A/PR/8/34 infected MDCK cells (influenza A virus A/PR/8/34, UniProt P06821 1-97); assay: cell-based ELISA, half-saturating antibody concentration
T1 construct: whole, on cells
T1 sequence (P06821 whole entry): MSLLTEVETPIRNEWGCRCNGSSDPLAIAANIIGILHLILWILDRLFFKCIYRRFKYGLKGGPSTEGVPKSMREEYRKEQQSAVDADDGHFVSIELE

| Binder | Kd |
| --- | --- |
| B1 | 0.497 nM |
| B2 | 0.519 nM |
| B3 | 1.05 nM |
| B4 | 0.563 nM |
